Target: VZV gB[H527P] on extracellular vesicles (EVs) from BHK-21 cells (varicella-zoster virus (VZV)) (UniProt Q4JR05)
Experiment: cryo-EM structure

“VZV gB[H527P] on extracellular vesicles (EVs) from BHK-21 cells (from UniProt Q4JR05 72-931) (natural protein)” showed a stoichiometry N of 3.
